Source: patent US20200079833A1 (AstraZeneca / MedImmune, published 2020)
Starred links: 1 amine or outer side, 2 acyl side, 3 side chain; linkers in the order of their positions; H or OH if unused. Non-standard residues stand in square brackets, D forms with d. Groups on a side chain read outwards from the residue. No end group written: not given here. *: point of attachment. γGlu = O=C(O)[C@H](CCC(=O)[*:2])N[*:1]; αMeF = C[C@](N)(Cc1ccccc1)C(=O)O; αMeK = C[C@](N)(CCCCN)C(=O)O; Lauroyl = CCCCCCCCCCCC(=O)*; αMeS = C[C@](N)(CO)C(=O)O; Aib = CC(C)(N)C(=O)O; Ahx = NCCCCCC(=O)O

T1: glucose-dependent insulinotropic peptide (gastric inhibitory polypeptide) receptor (GIPR) (human, UniProt P48546 22-466)
T1 sequence (looked up): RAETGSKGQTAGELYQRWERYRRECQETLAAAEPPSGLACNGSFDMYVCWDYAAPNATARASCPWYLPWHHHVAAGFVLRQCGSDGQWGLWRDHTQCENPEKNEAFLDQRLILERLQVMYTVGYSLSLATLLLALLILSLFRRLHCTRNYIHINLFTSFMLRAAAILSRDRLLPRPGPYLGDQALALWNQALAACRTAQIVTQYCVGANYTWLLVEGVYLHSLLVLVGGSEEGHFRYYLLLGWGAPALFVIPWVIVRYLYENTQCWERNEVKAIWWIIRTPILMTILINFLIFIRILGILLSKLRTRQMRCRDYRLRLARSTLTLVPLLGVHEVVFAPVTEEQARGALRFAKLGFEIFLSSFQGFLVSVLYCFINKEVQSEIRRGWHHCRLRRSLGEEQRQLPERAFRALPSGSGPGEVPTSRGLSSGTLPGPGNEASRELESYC

B1: SEQ ID NO 130 (peptide)
peptide: H[Aib]EGS[αMeF]TSDV[αMeS]S[αMeF]LEGEAAK([γGlu-γGlu-γGlu-Lauroyl])E[αMeF]IA[αMeF]VV[αMeK]GG-NH2
modifications: N-terminus assumed
SMILES: CCCCCCCCCCCC(=O)N[C@@H](CCC(=O)N[C@@H](CCC(=O)N[C@@H](CCC(=O)NCCCC[C@H](NC(=O)[C@H](C)NC(=O)[C@H](C)NC(=O)[C@H](CCC(=O)O)NC(=O)CNC(=O)[C@H](CCC(=O)O)NC(=O)[C@H](CC(C)C)NC(=O)[C@](C)(Cc1ccccc1)NC(=O)[C@H](CO)NC(=O)[C@](C)(CO)NC(=O)[C@@H](NC(=O)[C@H](CC(=O)O)NC(=O)[C@H](CO)NC(=O)[C@@H](NC(=O)[C@](C)(Cc1ccccc1)NC(=O)[C@H](CO)NC(=O)CNC(=O)[C@H](CCC(=O)O)NC(=O)C(C)(C)NC(=O)[C@@H](N)Cc1c[nH]cn1)[C@@H](C)O)C(C)C)C(=O)N[C@@H](CCC(=O)O)C(=O)N[C@@](C)(Cc1ccccc1)C(=O)N[C@H](C(=O)N[C@@H](C)C(=O)N[C@@](C)(Cc1ccccc1)C(=O)N[C@H](C(=O)N[C@H](C(=O)N[C@@](C)(CCCCN)C(=O)NCC(=O)NCC(N)=O)C(C)C)C(C)C)[C@@H](C)CC)C(=O)O)C(=O)O)C(=O)O
B2: SEQ ID NO 131 (peptide)
peptide: H[Aib]EGS[αMeF]TSDV[αMeS]S[αMeF]LEGEAAK([Ahx-Lauroyl])E[αMeF]IA[αMeF]VV[αMeK]GG-NH2
modifications: N-terminus assumed
SMILES: CCCCCCCCCCCC(=O)NCCCCCC(=O)NCCCC[C@H](NC(=O)[C@H](C)NC(=O)[C@H](C)NC(=O)[C@H](CCC(=O)O)NC(=O)CNC(=O)[C@H](CCC(=O)O)NC(=O)[C@H](CC(C)C)NC(=O)[C@](C)(Cc1ccccc1)NC(=O)[C@H](CO)NC(=O)[C@](C)(CO)NC(=O)[C@@H](NC(=O)[C@H](CC(=O)O)NC(=O)[C@H](CO)NC(=O)[C@@H](NC(=O)[C@](C)(Cc1ccccc1)NC(=O)[C@H](CO)NC(=O)CNC(=O)[C@H](CCC(=O)O)NC(=O)C(C)(C)NC(=O)[C@@H](N)Cc1c[nH]cn1)[C@@H](C)O)C(C)C)C(=O)N[C@@H](CCC(=O)O)C(=O)N[C@@](C)(Cc1ccccc1)C(=O)N[C@H](C(=O)N[C@@H](C)C(=O)N[C@@](C)(Cc1ccccc1)C(=O)N[C@H](C(=O)N[C@H](C(=O)N[C@@](C)(CCCCN)C(=O)NCC(=O)NCC(N)=O)C(C)C)C(C)C)[C@@H](C)CC

Assays:
Assay in all cases: cell-based or functional assay
glucagon receptor (GCGR) = glucagon receptor (GCGR) (human, UniProt P47871 26-477)
Chain of glucagon receptor (GCGR) (P47871 26-477): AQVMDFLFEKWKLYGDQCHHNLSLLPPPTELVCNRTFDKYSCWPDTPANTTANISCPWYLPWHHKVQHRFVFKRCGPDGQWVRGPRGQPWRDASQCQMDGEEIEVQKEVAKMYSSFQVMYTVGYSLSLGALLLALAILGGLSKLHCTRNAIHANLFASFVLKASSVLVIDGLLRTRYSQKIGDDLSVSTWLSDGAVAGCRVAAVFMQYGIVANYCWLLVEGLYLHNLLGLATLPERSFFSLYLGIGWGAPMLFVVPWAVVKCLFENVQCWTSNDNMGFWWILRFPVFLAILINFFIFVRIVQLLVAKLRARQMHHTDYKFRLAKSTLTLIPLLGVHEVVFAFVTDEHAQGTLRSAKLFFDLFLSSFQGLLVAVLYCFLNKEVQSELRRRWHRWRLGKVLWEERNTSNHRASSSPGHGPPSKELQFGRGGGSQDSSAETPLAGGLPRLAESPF

GLP-1 receptor (GLP-1R) = GLP-1 receptor (GLP-1R) (human, UniProt P43220 24-463)
[1] = target: T1, glucose-dependent insulinotropic …

Row | Binder | cAMP Primary assay EC50 Gluc-R (glucagon receptor (GCGR)) | cAMP Primary assay EC50 Gluc-R (2nd) (glucagon receptor (GCGR)) | cAMP Mean pM GLP-1R (GLP-1 receptor (GLP-1R)) | cAMP Primary assay EC50 GLP-1R n1 (GLP-1 receptor (GLP-1R)) | cAMP Primary assay EC50 GLP-1R n2 (GLP-1 receptor (GLP-1R)) | cAMP Primary assay EC50 GIP-R [1] | cAMP Primary assay EC50 GIP-R (2nd) [1]
1 | B1 | 26 nM | 26 nM | 14.4 pM | 16 pM | 13 pM | 26 nM | 26 nM
2 | B2 | 29 nM | 29 nM | 11.7 pM | 14 pM | 9.9 pM | 29 nM | 29 nM
